Laboratory results as given in paper PMC5628889, “Thermal adaptation of mesophilic and thermophilic FtsZ assembly by modulation of the critical concentration” (PLoS ONE, 2017).

Experiments:
[1] = molecular target: Methanocaldococcus jannaschii FtsZ-his6 fusion protein (Methanocaldococcus jannaschii) (UniProt Q57816)
[2] = molecular target: Methanocaldococcus jannaschii FtsZ-his6 fusion protein (Methanocaldococcus jannaschii) (UniProt Q57816); experiment: negative-stain transmission electron microscopy; 10 μM MjFtsZ polymerized with 1 mM GTP at 80°C; 50 mM MES-KOH pH 6.5, 5 mM MgCl2, 300 mM KCl; 2% uranyl acetate
[3] = molecular target: Methanocaldococcus jannaschii FtsZ-his6 fusion protein (Methanocaldococcus jannaschii) (UniProt Q57816); experiment: van't Hoff analysis of critical concentrations (light scattering + GTPase activity); MjFtsZ; global fit of ln(1/CC) vs 1/T (40-80°C) with the integrated van't Hoff equation; parameters extrapolated to the optimal growth temperature; polymer elongation, apparent
[4] = molecular target: Methanocaldococcus jannaschii FtsZ-his6 fusion protein (Methanocaldococcus jannaschii) (UniProt Q57816); experiment: 90° light scattering; MjFtsZ self-assembly started with 1 mM GTP; 50 mM MES-KOH pH 6.5, 5 mM MgCl2, 300 mM KCl; 40°C; critical concentration from extent of polymerization vs total protein; k_depol from the slope of the disassembly stage (7 μM); monomer addition at polymer ends, apparent
[5] = molecular target: Methanocaldococcus jannaschii FtsZ-his6 fusion protein (Methanocaldococcus jannaschii) (UniProt Q57816); experiment: 90° light scattering; MjFtsZ self-assembly started with 1 mM GTP; 50 mM MES-KOH pH 6.5, 5 mM MgCl2, 300 mM KCl; 50°C; critical concentration from extent of polymerization vs total protein; k_depol from the slope of the disassembly stage (7 μM); monomer addition at polymer ends, apparent
[6] = molecular target: Methanocaldococcus jannaschii FtsZ-his6 fusion protein (Methanocaldococcus jannaschii) (UniProt Q57816); experiment: 90° light scattering; MjFtsZ self-assembly started with 1 mM GTP; 50 mM MES-KOH pH 6.5, 5 mM MgCl2, 300 mM KCl; 60°C; critical concentration from extent of polymerization vs total protein; k_depol from the slope of the disassembly stage (7 μM); monomer addition at polymer ends, apparent
[7] = molecular target: Methanocaldococcus jannaschii FtsZ-his6 fusion protein (Methanocaldococcus jannaschii) (UniProt Q57816); experiment: 90° light scattering; MjFtsZ self-assembly started with 1 mM GTP; 50 mM MES-KOH pH 6.5, 5 mM MgCl2, 300 mM KCl; 70°C; critical concentration from extent of polymerization vs total protein; k_depol from the slope of the disassembly stage (7 μM); monomer addition at polymer ends, apparent
[8] = molecular target: Methanocaldococcus jannaschii FtsZ-his6 fusion protein (Methanocaldococcus jannaschii) (UniProt Q57816); experiment: 90° light scattering; MjFtsZ self-assembly started with 1 mM GTP; 50 mM MES-KOH pH 6.5, 5 mM MgCl2, 300 mM KCl; 80°C; critical concentration from extent of polymerization vs total protein; k_depol from the slope of the disassembly stage (7 μM); monomer addition at polymer ends, apparent
[9] = molecular target: the molecule itself; experiment: negative-stain transmission electron microscopy; 10 μM EcFtsZ polymerized with 1 mM GTP at 30°C; 50 mM MES-KOH pH 6.5, 5 mM MgCl2, 50 mM KCl; 2% uranyl acetate
[10] = molecular target: the molecule itself; experiment: van't Hoff analysis of critical concentrations (light scattering + GTPase activity); EcFtsZ; global fit of ln(1/CC) vs 1/T (10-30°C) with the integrated van't Hoff equation; parameters extrapolated to the optimal growth temperature; polymer elongation, apparent

“Methanocaldococcus jannaschii FtsZ-his6 fusion protein (from UniProt Q57816 1-364) (natural protein)” showed a critical concentration for the GTPase activity C (C-GTPase) (malachite green phosphate release, 1 mM GTP), 40°C [1] of 5.5 µM, a critical concentration for the GTPase activity C (C-GTPase) (malachite green phosphate release, 1 mM GTP), 45°C [1] of 4.7 µM and a critical concentration for the GTPase activity C (C-GTPase) (malachite green phosphate release, 1 mM GTP), 50°C [1] of 3.3 µM. The critical concentration for the GTPase activity C (C-GTPase) (malachite green phosphate release, 1 mM GTP), 55°C [1] was 3.3 µM, the critical concentration for the GTPase activity C (C-GTPase) (malachite green phosphate release, 1 mM GTP), 65°C [1] was 2.2 µM and the critical concentration for the GTPase activity C (C-GTPase) (malachite green phosphate release, 1 mM GTP), 70°C [1] was 1 µM. It also gave a critical concentration for the GTPase activity C (C-GTPase) (malachite green phosphate release, 1 mM GTP), 80°C [1] of 1.1 µM, a stoichiometry N [2] greater than 120 subunits and a dH [3] of 5.57 kJmol^−1. The critical concentration for polymerization C (C-Pol) (= 1/Kp) [4] was 3.9 µM, the critical concentration for polymerization C (C-Pol) (= 1/Kp) [5] was 1.8 µM and the critical concentration for polymerization C (C-Pol) (= 1/Kp) [6] was 1.6 µM. It also gave a critical concentration for polymerization C (C-Pol) (= 1/Kp) [7] of 1.6 µM and a critical concentration for polymerization C (C-Pol) (= 1/Kp) [8] of 1.1 µM.

B1: Wild type Escherichia coli FtsZ (natural protein, UniProt P0A9A6 1-383, looked up)
chain: MFEPMELTNDAVIKVIGVGGGGGNAVEHMVRERIEGVEFFAVNTDAQALRKTAVGQTIQIGSGITKGLGAGANPEVGRNAADEDRDALRAALEGADMVFIAAGMGGGTGTGAAPVVAEVAKDLGILTVAVVTKPFNFEGKKRMAFAEQGITELSKHVDSLITIPNDKLLKVLGRGISLLDAFGAANDVLKGAVQGIAELITRPGLMNVDFADVRTVMSEMGYAMMGSGVASGEDRAEEAAEMAISSPLLEDIDLSGARGVLVNITAGFDLRLDEFETVGNTIRAFASDNATVVIGTSLDPDMNDELRVTVVATGIGMDKRPEITLVTNKQVQQPVMDRYQQHGMAPLTQEQKPVAKVVNDNAPQTAKEPDYLDIPAFLRKQAD
notes: Cell division protein FtsZ, Escherichia coli, wild type; assembly was started with 1 mM GTP; also called EcFtsZ; mesophilic EcFtsZ; source: E. coli BL21 (DE3), overexpressed, purified (polymerization-depolymerization cycles)
In the case of B1, the “stoichiometry N” value [9] is reported as greater than 120 subunits and the dH [10] is reported as -18.4 kJmol^−1.
